# Test: soluble on expression in E. coli; label from the status in PepcDB or PDB records
row,Sequence,soluble on expression in E. coli
1,MGSDKIHHHHHHMYPKNFWYVGAMKHEVGRQLLARTLLEQPVVFFRRNDGSVAALADRCSHRRVSLSLGRLIGDEVQCGYHGLTFAGDGSCTSIPGQSRVPPSACVRSYPVVERDGFVWIWPGDPALANETLVPDYAEICSSGRYVGRPAEALLVEAPFLFNIENVLDLSHVTYAHPETVGTPEVALTRPTVDVSEAKVQVTRNWDKASTGPSFKNLFGWDFVKNSQRISFWPGANMLLEIEVEPVGNNDPTQIKRLRVPGPCTPSTSTTHFKFSALYRDFLPDNEALTVGMFEQFRKTVMEDKVLMENQQRNWALDGVEVIRRIEPSSSGGMMDIAVDHAPLAARRWLQRLAMAERSAPEIKAPGVLQG,not soluble
2,MPHPTHCRSANAVFRARMEFGLLEAPVSFSTLMDKRERGSFDSQFLIAMPGLDDGNFARSVIYICAHSDAGAMGFIINRPQQITFTDILLHLKLVDSNDAIMLPNRTREFPIQCGGPVESGRGFVLHSDDYLSESSIPVSDDISLTATLDIVRAISNGRGPQKATMMLGYAGWGPGQLENEIANNGWLNCPAAEELIFDRGLDNKYERALALMGVDARMLSTDAGHALEHHHHHH,soluble
3,MYLTLQEWNARQRRPRSLETVRRWVRESRIFPPPVKDGREYLFHESAVKVDLNRPVTGSLLKRIRNGKKAKS,soluble
4,MEQDTQHVKPLQTKTDIHAVLASNGRIIYISANSKLHLGYLQGEMIGSFLKTFLHEEDQFLVESYFYNEHHLMPCTFRFIKKDHTIVWVEAAVEIVTTRAERTEREIILKMKVLEEETGHQSLNCEKHEIEPASPESTTYITDDYERLVENLPSPLCISVKGKIVYVNSAMLSMLGAKSKDAIIGKSSYEFIEEEYHDIVKNRIIRMQKGMEVGMIEQTWKRLDGTPVHLEVKASPTVYKNQQAELLLLIDISSRKKFQTILQKSRERYQLLIQNSIDTIAVIHNGKWVFMNESGISLFEAATYEDLIGKNIYDQLHPCDHEDVKERIQNIAEQKTESEIVKQSWFTFQNRVIYTEMVCIPTTFFGEAAVQVILRDISERKQTEELMLKSEKLSIAGQLAAGIAHEIRNPLTAIKGFLQLMKPTMEGNEHYFDIVFSELSRIELILSELLMLAKPQQNAVKEYLNLKKLIGEVSALLETQANLNGIFIRTSYEKDSIYINGDQNQLKQVFINLIKNAVESMPDGGTVDIIITEDEHSVHVTVKDEGEGIPEKVLNRIGEPFLTTKEKGTGLGLMVTFNIIENHQGVIHVDSHPEKGTAFKISFPKK,not soluble
5,METRLLVLKYDILNREAICLNRETHELLHANLVESVQPQIGQFLAVENLKIVQIDGVCFISPECGTIVIEPPAPEDCVILPKEKTDVVMFKSWIGFSSDPSHLTYDRNIGYADWYGPVNCSQFKAKNTKVAFFKYLIAVNDLDYKNTGECLMKAVQLVGVIDNRDAAEVRLKMMEFERKRIADIQRTTKQTRLIETVAYPILPSAHQPSSNHSYTGRSSCDSLRPQPVPAARKLSEQPQTVQNQAPYREQINQQRSVTNSIYGEFSGVGRTDQPLETANSRGSTEYYSGRSSSSSDQVIRNEPQLPNPAPILPESMGMVTYENGIMQIVYLRSVQKAAIHYWSKHQITTSLGSVFNCSFKPIPVQATTHWAPFEITAINNVNNEKNEVKTVGKECFALFKVDLSRPEGKFSKWTTIGGNPIFSCEIVGYVMLAHSVLGPQQNQLSILNVAQNYYNRKVAENICCFCRFVRRQVPRMMVDSHWISEDEEVEVFIWELVEIVGASELYRKRQEQLEIGNLGDTADNVKRHNDDIEMQKKRAQQEHFAQQQRPAGSSNSYQTENAQQHSMSNNMQYYHSQAPPVSSRSSISLGETAEFKNKLERTNDMMESLCDAIKKFLDNRQLKETLRGYNPRRLQALEEKLKECSEHLENN,not soluble
6,MKKTKFSSYEEYRNYFKRLIDLERRAQTELHLKEIKTLSGKEREKRGRAILNLRAKFLGRGLGGVYLVRYSRPQGLPKTEISTGDIVLVSKGKPTVKEVQGTVAEKTNYYLVVAFRDKPPPYALGKDVRIDLFSNEITFKRMEEALKNFKEHPLRDFILGKKVLEHHHHHH,soluble
7,MANTLIVGAGWLGTPLAQALLVEGHDVVITRRSQARLDERPSTIANAALLDLNDENAAQKLDEIIQSNHIERIVGAFPPGFRRGSGREYAQQWSTLVKAAKQHAIEKLVMISSTTVYPNLPTDMKEESASLALVQTHPHFSDNAKIMLEAEQSVIDSGINYAILRCSGLFGPDRHPARFAMRLKQVSRKAPANMLHQSDAVAVAQFALDHLSNQIINVTTPHTVSKAEFYQAAITKSGAEISLPPVTEDADKRILADKLVSLGYQFRFNSTLDAL,not soluble
8,MGSDKIHHHHHHMADKPFRLVTRSDFDGLVCATLLKELALIDEITFVHPKDMQDGQIPVTERDITTNLPYVEGVHLCFDHHLSETIRVGKKANHIIDPLAPSAARVVYNYFGGKARFPRIPDDMMDAVDKGDSAQYNMEEVLHPGGWELLNFLMDARTGLGRFREFRIPNYQLMMELIDYCRDHAIEDILDLPDVSERVDLYREHEPRFKEQLKRCSTVHGNLVVLDLRDEDPIWAGNRFMIYALYPETNISIHVLWGRERRNTVFAVGKSIFNRSSNTNIGELMLGYGGGGHHAAGTCQVDNAQAADVLARLIARITEDG,not soluble
9,MRKMNLIVAMDAEGGIGKNGVLPWRIKKDMQYFASVTKNVSDQSKRNAVLMGRKCWESIPVTRRPLAGRLNIVLSRQLPAQKSDDYIVVNSLEAAMKLLSEPPFVDSIETIWNIGGAEIYDLALRENLVDEIHLTRIFKNFEADVHLKSLDFSKMEKVQNAEVSSENSEIFEENGLKFEFCKWKVVENH,not soluble
10,MSVEPTSVDPSPDKSAPANASGRADASARPSTGESARPSGGETPEVLRPHAEVTFAAELAALAAQDDRPRPVRWRLSPWAVATYLLGGTLPDGTVITPKYVGPRRIVEVAVTTLATDRALLLLGVPGTAKTWVSEHLAAAVSGDSTLLVQGTAGTPEEAIRYGWNYAQLLAHGPSRDALVPSPVMRAMADGMTARVEELTRVPADVQDTLITILSEKTLPIPELGQEVQAVRGFNLIATANDRDRGVNELSSALRRRFNTVVLPLPESADAEVDIVSRRVDQIGRSLDLPAVPDGVDEIRRVVTVFRELRDGVTTDGRTKLKSPSGTLSTAEAISVVTNGLALAAHFGDGVLRASDVAAGILGAVVRDPAADRVIWQEYLEAVVRERDGWMDFYRACREVSALEHHHHHH,soluble
11,MRNWKVTGKYPQLDGTGAVASTHIIIAAEDGAVIPQLIKQDLTSTNDTEIIKAALEEFKKSEYVEIAMGEAVQKVDDLEKISQETAKTAKTAQTAAGLAKVSAERTQRMINLQTIHVLTSGGNVEPDIYKGMLELIEPAKQGEYQAYDVFTVVDESHEDQAVEGNLVFVHVNEPFTYEAQTLKDLESEDKVTVIKYADLVKQD,not soluble
12,MGSDKIHHHHHHAATSNKKNTIKLISTNNNIKIPVYDRQGKQINGFTVESGANVTVIGKPIIVQQKYRKDVFEGIKINGKTYASLGDGGYIPINATGVITSKGMKITRDTAVYNKNGKKLSTYRGHTATLKKDSIVKYGGATTYTIPVSYFNIGNGRYVRASYVQEYNGQTVLTLNYNTFVYNKKGKRINYDGQRKLMNGGVVTTNSKIREAKSSDQNYFYSSANYTDKNKLAFTTTKIKGQDYLSIGKGEYIKIANVKTANGMILFTKGPITITLPSDTTIYSSNFKETKKQIAAGKKVILDKTEIDNSLSDPQLYFRIKGTNELIYWGDLGEYPGVDHTAVYDPNYYSIYSFPLRQFME,not soluble
13,MQTLKYISGYSPDIQRQVQQLLESGKLGDVLLRRHPQVHEIRSDKALYDYTQGIKNQFLRQSSPLSKVIFDDKISMSHHALGLHSYVARVQGNKIKAKNEIRISSRLKRVPEPLLRMVVVHELAHLKEKDHNKAFYNLCTYMEPDYHQFEFDLRLLLTCIDANQSPYATNSINLEHHHHHH,soluble
14,MGSDKIHHHHHHLPTSVSPISYQLTVKTYLPGYGYTADKNNLTFEGQVLIELNITKSIKKVSLNSKDLNYTEEFIKKSSILVNGKSIAFTLDDKQSTHEKIFFNLDETVEPTTSATLKVAFGAPLRTDMSGLYQTTYTNSKGESKMAAVTQMEPVYARRMVPCFDEPAYKATWTVTVIHPNKTVAVSNGIEDKVEDGQPGFIISTFKPTPRMSSYLLAIFISEFEYNEATTKSGVRFRVWSRPEEKNSTMYAVEAGVKCLEYYEKYYNISFPLPKQDMVALPDFSAGAMENWGLITYRESALLYDPRIYSGSQKRRVAVVIAHELAHQWFGNLVTLKWWNDLWLNEGFATLVEYLGTDEISDGNMRMREWFTMDALWSALAADSVASTHPLTFKIDKAMEVLDSFDSVTYDKG,not soluble
15,MGSDKIHHHHHHMKQLILFLLCLSTWTAQAKIYNVKDYGAKADGTTIDSPAINRAIEEAASQGGGTVYFPAGEYACYSIRLASHIHLYIEQGARIVGAFPSATEGYDPAEPNEHTQFQDFGHSHWKNSLIWGIGLEDITISGPGLIYGKGLTREESRLPGVGNKAISLKLCKNVTLKDFSLLHCGHFGLLATGVDNLSILNVKVDTNRDGFDIDCCKNVRISHCTVNAPWDDAIVLKASYGLGYFKDTENVTISDCFVSGYDRGSVLDCTWQRDEPQAPDHGFVTGRIKLGTESSGGFKNIAITNCIFERCRGLALETVDGGKLEDIVISNITMRDIVNAPIFLRLGARMRSPQGTPVGTMKRILISHVNVFNADSRYSSIISGIPGALIEDVTLSDIHIYHQGGYTEADGLLTPPEQEKVYPEPWMFGTIPAKGFYIRHARNITLDNVNFHYEKADGRPLFVTDDASDIRYRNITVDGKEFNTAN,not soluble
16,MSLTKEEMRNAILDIFQSNPQSVMNYKQVSHLMGVEAAPQKLMVNSLMEDMAVDDILHEIERGRYRYNALGLIVIGTFERRFNGRNSFIPEGGGTPIFIAERNSAHAMDGDKVKVQLFAKRRGRAPEAAVIEIIEQKQATFVGKIQINRDFAFLVTEDRTLANDIFIPKDNLGNAKNGDKVIVRILEWPEQSKNPIGEVQAVLGPAGDNDAEMNAILAEFGLPYVYPQEVEEAADRLDGKITEEELARREDFRSILTFTIDPKDAKDFDDAISFRPLEDDCYEVGVHIADVSHYVTEGGIIDQEAYNRATSIYLVDRTIPMLPERLCNDLCSLRPDEEKYAYSCIFRMNDEAKVLDYRICHSVIKSDRRFAYEEAQAVIETGEGDCKEAILKLNELAQRLRKERFQNGAIAFERKEVRFEIDEKGRPLGVIVKESKEANKLIEEFMLLANRTVARHIGEETQGKRAKTFVYRIHDLPDPDKLETLSDFIRRFGYKLRTTGSNVEVSKSINSLLDNIQNKPEENLISTVAIRSMAKAIYSTDNIGHYGLAFDFYTHFTSPIRRYPDLMVHRLLTKYLSGGSSVDKNDYEEKCKHSSAMEQLAASAERASIKYKQVEFMSEHLGKVFDGVISGVTEWGLYVELKENMCEGLIPIRCLDDDYYEYDDKNFCLIGRRYRHRYSLGDAITVRVAQANLDRKQLDFEPVSEGHHHHHH,soluble
17,MNSTSIYILVALHPIITLTNMPNTAMEATELLKEIQKHDSQQAFRSLYDMYYDRFFRIAFYYLQRDEWAQEVILDVFTTLWNHRKSQLIPDDFNKYSYILIRNAALNYLEKEQRREASPLENMPEISSSNLSPEEQMMNEELFNIYENSLNELPERCRTIFIKVREEKQSYASVAEELNISPKTVDAQLQKAVTRLKEKINNYFRNRR,not soluble
18,MGHHHHHHSHSSPEREITLVNLKKDAKYGLGFQIIGGEKMGRLDLGIFISSVAPGGPADLDGCLKPGDRLISVNSVSLEGVSHHAAIEILQNAPEDVTLVISQPKEKISKVPSTPVHLTNEMKNYMKKSSYMQDSAIDSSSKDHHWSRGTLRHISENSFGPSGGLREGSLSSQDSRTESASLSQSQVNGFFASHLGDQ,not soluble
